From publication PMC10126257, “Genome resequencing and transcriptome analysis reveal the molecular mechanism of albinism in Cordyceps militaris”

T1: CmWC-3 (zinc-finger domain-containing protein, GATA-type) (Cordyceps militaris, UniProt G3J672 1-188)
T1 sequence: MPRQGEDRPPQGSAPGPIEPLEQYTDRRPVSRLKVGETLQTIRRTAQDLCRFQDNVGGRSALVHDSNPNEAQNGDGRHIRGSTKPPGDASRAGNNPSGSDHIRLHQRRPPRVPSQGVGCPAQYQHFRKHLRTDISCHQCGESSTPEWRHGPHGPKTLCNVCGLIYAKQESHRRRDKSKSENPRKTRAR

T2: CmWC-1 (white collar-1) (Cordyceps militaris, UniProt G3J3J5 1-963)
T2 sequence: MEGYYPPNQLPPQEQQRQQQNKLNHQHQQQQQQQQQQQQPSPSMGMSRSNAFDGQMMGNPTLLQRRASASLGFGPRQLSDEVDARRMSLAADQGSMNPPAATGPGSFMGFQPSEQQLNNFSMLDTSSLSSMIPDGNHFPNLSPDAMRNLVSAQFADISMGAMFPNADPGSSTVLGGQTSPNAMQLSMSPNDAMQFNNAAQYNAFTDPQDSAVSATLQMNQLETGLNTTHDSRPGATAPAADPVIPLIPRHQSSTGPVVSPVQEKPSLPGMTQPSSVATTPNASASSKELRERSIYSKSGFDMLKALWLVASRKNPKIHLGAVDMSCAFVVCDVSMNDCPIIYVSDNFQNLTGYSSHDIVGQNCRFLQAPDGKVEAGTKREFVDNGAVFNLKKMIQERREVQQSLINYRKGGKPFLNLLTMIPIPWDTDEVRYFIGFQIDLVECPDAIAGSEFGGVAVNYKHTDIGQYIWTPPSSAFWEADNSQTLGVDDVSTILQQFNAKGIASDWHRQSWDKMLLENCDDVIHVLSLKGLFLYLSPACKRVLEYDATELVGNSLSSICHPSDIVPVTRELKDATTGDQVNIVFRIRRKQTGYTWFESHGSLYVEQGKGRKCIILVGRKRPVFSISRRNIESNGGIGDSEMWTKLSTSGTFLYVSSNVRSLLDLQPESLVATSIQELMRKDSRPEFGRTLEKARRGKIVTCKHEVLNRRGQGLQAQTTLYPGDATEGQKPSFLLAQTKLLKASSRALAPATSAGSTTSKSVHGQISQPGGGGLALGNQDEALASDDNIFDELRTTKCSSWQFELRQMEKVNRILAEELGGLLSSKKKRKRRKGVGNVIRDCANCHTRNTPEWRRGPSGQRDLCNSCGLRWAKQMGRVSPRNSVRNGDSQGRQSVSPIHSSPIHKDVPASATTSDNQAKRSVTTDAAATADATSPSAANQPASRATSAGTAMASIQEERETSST

B1: CmPKS promoter P2 probe (dsDNA)
DNA 1: CGCAGCTGAGGGTATTGATAGCCGTGATCGAACCC
DNA 2: GGGTTCGATCACGGCTATCAATACCCTCAGCTGCG
B2: CmPKS promoter P1 probe (dsDNA)
DNA 1: TCATATGATTGTTGATAAATATGTTTTCCCAGTGA
DNA 2: TCACTGGGAAAACATATTTATCAACAATCATATGA

Tests used:
[1] = target: T1, CmWC-3 (zinc-finger domain-containing …); test: EMSA; LightShift EMSA Kit (Thermo 20148); cold competitor 50x; proteins recovered in 1x PBS; binding buffer, salt, pH and temperature not stated; settings: protein: recombinant; tags: GST (pGEX-6P-1); label: biotin on both strands (5'); blunt
[2] = target: T2, CmWC-1 (white collar-1); test: as above; settings: protein: recombinant; tags: His (pCOLD I); label: biotin on both strands (5'); blunt

Binder | binding result [1] | binding result [2]
B1 | binds | no binding
B2 | binds | no binding
